# According to patent US20250034594A1, “RNA-GUIDED GENOME RECOMBINEERING AT KILOBASE SCALE” (THE BOARD OF TRUSTEES OF THE LELAND STANFORD JUNIOR …, priority 2021, published 2025):
# B1: SSAP_84: SEQ ID NO: 253; Bet Fimbriiglobus ruber (protein)
# chain: TDIAHRSYSAPQLSLIRRTVAKDTNQDEFDLFIEICKQQGLDPFKKQIFAQVYNKDKADKRQIVIVTSIDGYRAKAQRCGDYRPAEEETRFEADAALKIRRQPMGSFVRSCGLQVRPGQGVVSRVGEARWDEFAPLDDAEFDWVDTGETWPDTGKPKKKKVAKSAKKTLKEGNWKNMPHVMLGKCAEAQALGGGGRKRSAACTSKRRWTRSTWT
# modifications: Fimbriiglobus ruber
# B2: SSAP_246: SEQ ID NO: 415; Anoxybacillus (protein, listed as Anoxybacillus sp.)
# chain: ATTQSLKNQIAKKQNSNIQQGVTLKQLLNSESMKKRFEEVLGKRAQQFATSILNLYNSEKMLQKCEPMSIISSAMVAASLDLPVDKNLGYMYIVPYGTTATPIMGYRGYIQLALRTGQYKHINVIEVYEGELQKWDRLTEEFEMDSKQKKSDVVVGYAAYFELINGFRKTVYWTREQIEAHRKKYSKSDFGWKNDFDAMAKKTVLKSLLSKWGILSIEMQNAFNEDEKEVDTKEVKDITSEVQEAEYIEAEAFEVPIETETPQQEEIVFDAQ
# B3: SSAP_245: SEQ ID NO: 414; Paenibacillus macquariensis subsp. defensor (protein, listed as Paenibacillus macquariensis)
# chain: SDKLLVIHKNLENLLDSKREAMPSNFNKTRFLQNCMTVLQDTRDIDKCDATSVARTMLKGAFLGLDFFNKECYAITYAGAVQFQTDYKGEKKLAKKYSVRPVRDIYAKLVKEGDDFKEEVKDGQQTIQFAPKPFNDGEVLGAFAVALFEDGGLVYEVMSKVDIETTRKNYSKQANGQAWTKSPGEMYKKTVLRRLCKNIELDFDTIEQAQAFEDSGDMDLNKEVKPPQVSPLNATVIDAEYTEIREGDPNATNQE
# B4: SSAP_90: SEQ ID NO: 259; Xenorhabdus poinarii (protein, listed as Xenorhabdus poinarii)
# chain: TNTPPLAQADLQKAQPQTKVAATKDQALIQFINKPSMKAQLAAALPRHMAPDRMIRIVTTEIRKTPALANCDMQSFVGAVVQCSQLGLEPGSALGHAYLLPFGNGKSKTGQSNVQLIIGYRGMIDLARRSGQIVSISARTVRDGDQFHYEYGLNENLTHIPGENEDAPITHVYAVARLQDGGVQFEVMTRKQVEKVREKSSAGNNGPWVTHWEEMAKKTVIRRLFKYLPVSIEMQKAVILDEKADANIDQDNAAIFEGEFEEVGNDG
# B5: SSAP_271: SEQ ID NO: 440; Nocardia ninae (protein, listed as Nocardia ninae)
# chain: AESISKEVARQANPLAVVAKYQNELGKSMPAAIRGDVGRWMMVAEMAVRKNPKLLSIVQADQGASLMRALIECARLGHEPGTKYFYLVPRGNQISGEEGYHGIIKRVLNSGHYQKVLARTVFERDEYSFDPLTDQLPTHVPASGERGKPVSAYAFALHWDGTPSTVAEASPERIAAAKAKSYGTDRKDSPWQSVTGVMYRKTAIRELEPYVHTSAEPQPRQDNAGSRGAVMDPSTYDDAEPLDADVLDITADQIAEHDGEGAL
# B6: SSAP_86: SEQ ID NO: 255 (protein)
# chain: ADLTKTANGADLAAAIGGKQAETGRATAFDLVKSMEAEFAKALPRHVPVEQFMRTAVTELRQNADLQRSTSESLLGAFLTAARLGLEVGGPMGEFYLTPRFAKLPGQDQKAWQVVPIVGYRGLVKLARNAGVGAVKAWVVYEGDHFVEGANSERGPFFDFHPVPGDPAGRKEVGVLAVARLSGGDVQHTYLTIEQVEKRKARGSAGDKGPWATDRAAMIRKSGIRALAGELPQSTLLALARVVDEEVQTYVPGSLVDVGTGELEA
# B7: SSAP_206: SEQ ID NO: 375; Actinopolyspora xinjiangensis (protein, listed as Actinopolyspora xinjiangensis)
# chain: TGQTIGTAVAKKDDENPSAIIATNRADLARVMPSHVRTDSWVRIAQGIVRRDKNLAHAARQSPGTLMVALMEAARLGLEPGTEQYYLTPRKNKGKPEVLGIPGYQGLIELMYRSGAVSSVVVETVRENDTFQWAPGRMERPEHEADWFAINGERGQLRGVYAYAIMSNGATSKVVVLNRNDIARARDSAQGADSEHSPWKNHEEAMWLKTAARRLAKWVPTSTEDRRIVQGVAERSDQPTEAPLDLTDEPDTDQPIEGELVDEEATQ
# B8: SSAP_147: SEQ ID NO: 316; Staphylococcus felis (protein, listed as Staphylococcus felis)
# chain: ANANSFKEQVSNKNEVSENNNTPQQKTKGPRQQVSDLLERMAPEIQKALPSHMSAERMARIAMTAISSNTQLLECNPRSLIGALLQASQIGLEPNTALGQAYLIPYYNRNKGEFEAQLQLSYLGLIELATRTGQYKAIYAHEVYKEDEFYYEYGLHKNLVHKPVDDPKSEPIGYYAVYHLQNGGYDFSFWTRNKVELHSGQYSKAVQKGWNSPWKTDFNAMAKKTVLKDLLKYAPKSVEVSRAVGTDSKVSEISQNGEIIDVTDYSKEEE
# B9: SSAP_70: SEQ ID NO: 239 (protein)
# chain: SNLKNQLANKAGGTATKKQPQTMQDWIKVMEPQIKKALPSVITAERFTRMALTAISTNPKLAECTPESFMGALMNAAQLGLEPNTPLGQAYLIPYGKSVQFQVGYKGLMELAQRSGQFKSIYAHTVYENDEFEVEYGLTQNIVHKPNFDDRGKPIGFYAVYKLTNGGENFVFMTQREVEEFGKAKSKTFNNGPWKTDFEAMAKKTVLKQLLKYAPIKVEFQREIAQDATIKTEIAEDMTEVPEEMVEAEYEVVEQNTMAEDADLKGTPFETK
# B10: SSAP_31: SEQ ID NO: 200 (protein)
# chain: TTVNQTELKNKLAEKAKTPAKTGNTVFDLIRKMEPEIKRALPKQISPERFARIAMTAVRNTPKLQACEPISFIAALMQSAQLGLEPNTPLGQAYLIPYGKEVQFQLGYQGMLTLAYRTGEYQSIYAMPVYANDEFEYEYGLNEKLVHKPAPDPEGEPIYYYAVYKLKNGGHGFVVMSRQQIERHRDKYSPSAKQGKFSPWNTDFDSMAKKTVLKQLLKYAPKSVEFATQIAQDETIKTEIAEDMTEVQGIEVEYEATDDQENQENQEQED
# B11: SSAP_25: SEQ ID NO: 194 (protein)
# chain: NNEVMEKSVEYEVNGNSVKLTPNMIKQFITKGNADVTDQEAIMFMKLAEQQQLNPFLNEVYLIKFKGKPAQNIVAKEAFMKRAEKHSEYDGLEAGIIVQRGEEIKELPGAVCLPTDNLLGGWARVYRKDRKNPFYVQLDFKEFSKGQATWNQMPKNMIRKTAIVNALREAFPEALGAMYTEDDARLEEVKTAEPIKEKAETTQILENKFKELSENGQTEVGDEQTNESTEPEPTAKQEQLL
# B12: SSAP_3: SEQ ID NO: 167; RecT Escherichia coli (protein)
# chain: MTKQPPIAKADLQKTQGNRAPAAVKNSDVISFINQPSMKEQLAAALPRHMTAERMIRIATTEIRKVPALGNCDTMSFVSAIVQCSQLGLEPGSALGHAYLLPFGNKNEKSGKKNVQLIIGYRGMIDLARRSGQIASLSARVVREGDEFSFEFGLDEKLIHRPGENEDAPVTHVYAVARLKDGGTQFEVMTRKQIELVRSLSKAGNNGPWVTHWEEMAKKTAIRRLFKYLPVSIEIQRAVSMDEKEPLTIDPADSSVLTGEYSVIDNSEE
# B13: SSAP_171: SEQ ID NO: 340; Streptomyces indicus (protein, listed as Streptomyces indicus)
# chain: STDARNAVARRAETVGQVEQQAQQQPTLAQQIERMKPEMERALPKHMSADRMARIALTLIRKNPDLATCNTQSFLGALMTCSQLGFEPGSPTQEAYIIPRKGNAEFQLGYQGMVTLFYQHPMASSIKVETVRENDYFEHEEGLEERLVHRPCATGPRGRAIAYYSVARLINGGRTFKVMYPDEIEERRQKLPSKNSPAWRDNYDEMAKKTVLRNHFKALPKSAQLARALAHDGTVRTDATADVIDVAPEYPQRPELEAGPTA
# Tested on: gene editing with Cas9
# Assay: Screen of 322 new SSAP proteins, gene editing activity with Cas9 (Table 5)
# Format: cell-based
# Set-up: Cas9 with SSAP activity: scale not given here
# Conditions: not given
# In short: (§1)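 Editing screen of 322 newly identified, synthesized SSAPs, each co-used with Cas9 and with dCas9.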
row,Molecule,Cas9 with SSAP activity
1,B1,−1.881
2,B2,0.824
3,B3,0.282
4,B4,−0.504
5,B5,0.372
6,B6,0.575
7,B7,2.444
8,B8,0.679
9,B9,−1.263
10,B10,−4.826
11,B11,0.597
12,B12,−0.942
13,B13,−0.924

# Same assay, conditions: normalized
row,Molecule,Cas9 with SSAP activity (normalized)
1,B1,−0.590
2,B2,0.919
3,B3,0.572
4,B4,−0.093
5,B5,0.623
6,B6,0.280
7,B7,1.806
8,B8,1.062
9,B9,−0.349
10,B10,−0.842
11,B11,0.880
12,B12,−0.788
13,B13,−0.410

# Tested on: gene editing with dCas9
# Assay: Screen of 322 new SSAP proteins, gene editing activity with dCas9 (Table 5)
# Format: cell-based
# Set-up: dCas9 with SSAP activity: scale not given here
# Conditions: not given
# In short: as §1
row,Molecule,dCas9 with SSAP activity
1,B1,1.313
2,B2,−3.897
3,B3,−3.899
4,B4,−3.935
5,B5,−3.947
6,B6,−3.974
7,B7,−4.016
8,B8,−4.023
9,B9,−4.070
10,B10,−4.110
11,B11,−4.113
12,B12,1.058
13,B13,−4.132

# Same assay, conditions: normalized
row,Molecule,dCas9 with SSAP activity (normalized)
1,B1,1.563
2,B2,−0.611
3,B3,−0.575
4,B4,−0.892
5,B5,−0.622
6,B6,−0.714
7,B7,−0.671
8,B8,−0.498
9,B9,−0.652
10,B10,−0.643
11,B11,−0.660
12,B12,0.695
13,B13,−0.827

# Tested on: gene editing with Cas9 and dCas9
# Assay: Screen of 322 new SSAP proteins, activity across all experiments (Cas9 and dCas9, Table 5)
# Format: cell-based
# Set-up: scale not given here
# Conditions: not given
# In short: as §1
row,Molecule,Activity across all experiments
1,B1,−0.284
2,B2,−1.537
3,B3,−1.809
4,B4,−2.219
5,B5,−1.788
6,B6,−1.700
7,B7,−0.786
8,B8,−1.672
9,B9,−2.666
10,B10,−4.468
11,B11,−1.758
12,B12,0.058
13,B13,−2.528
